Results on 1 protein are retold here after PMC4754693 (Scientific Reports, 2016).

The series deals with the molecule itself. Put plainly: AUC.

B1: SARS 3C-like proteinase (SARS-3CLpro), wild type (enzyme)
chain: SGFRKMAFPSGKVEGCMVQVTCGTTTLNGLWLDDTVYCPRHVICTAEDMLNPNYEDLLIRKSNHSFLVQAGNVQLRVIGHSMQNCLLRLKVDTSNPKTPKYKFVRIQPGQTFSVLACYNGSPSGVYQCAMRPNHTIKGSFLNGSCGSVGFNIDYDCVSFCYMHHMELPTGVHAGTDLEGKFYGPFVDRQTAQAAGTDTTITLNVLAWLYAAVINGDRWFLNRFTTTLNDFNLVAMKYNYEPLTQDHVDILGPLSAQTGIAVLDMCAALKELLQNGMNGRTILGSTILEDEFTPFDVVRQCSGVTFQ
In the case of B1, the stoichiometry N – broadly, the number of molecules, sites or subunits per partner or assembly – was determined as 2.
